Values belong to the binder of their own block, whether it stands above or below them.
Molecular target: T1, IL10Rα/IL2Rγ receptor (human) (UniProt Q13651)
T1 sequence (looked up) 1: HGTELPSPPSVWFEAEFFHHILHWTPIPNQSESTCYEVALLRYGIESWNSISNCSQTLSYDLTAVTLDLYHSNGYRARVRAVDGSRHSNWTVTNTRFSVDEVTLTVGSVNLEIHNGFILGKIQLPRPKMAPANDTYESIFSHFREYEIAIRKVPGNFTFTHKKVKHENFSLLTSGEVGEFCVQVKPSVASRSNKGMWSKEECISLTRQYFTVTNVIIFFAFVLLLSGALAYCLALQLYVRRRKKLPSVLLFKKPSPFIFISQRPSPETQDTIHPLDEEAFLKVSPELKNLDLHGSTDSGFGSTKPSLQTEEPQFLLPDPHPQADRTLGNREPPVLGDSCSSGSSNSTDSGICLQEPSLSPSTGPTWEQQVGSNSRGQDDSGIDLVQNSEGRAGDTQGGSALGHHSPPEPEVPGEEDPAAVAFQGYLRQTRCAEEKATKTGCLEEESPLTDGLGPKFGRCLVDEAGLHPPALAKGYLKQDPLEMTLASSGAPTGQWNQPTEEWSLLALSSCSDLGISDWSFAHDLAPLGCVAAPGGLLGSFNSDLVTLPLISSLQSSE
T1 sequence (looked up) 2: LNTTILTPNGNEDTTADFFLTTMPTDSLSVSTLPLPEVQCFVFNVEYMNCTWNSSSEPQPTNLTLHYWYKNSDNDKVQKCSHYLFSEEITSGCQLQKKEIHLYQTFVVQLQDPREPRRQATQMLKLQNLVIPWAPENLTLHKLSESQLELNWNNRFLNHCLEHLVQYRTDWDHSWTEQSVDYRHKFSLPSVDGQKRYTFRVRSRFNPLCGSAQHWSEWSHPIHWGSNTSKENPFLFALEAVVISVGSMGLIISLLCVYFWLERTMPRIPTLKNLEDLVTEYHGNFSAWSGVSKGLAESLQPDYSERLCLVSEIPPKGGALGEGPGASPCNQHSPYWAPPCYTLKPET
Test: cell-based or functional assay

Granzyme A secretion, CD8 T cells, at 0 µM: 25200 pg/mL
Granzyme A secretion, CD8 T cells, at 0.0001 µM: 19700 pg/mL
Granzyme A secretion, CD8 T cells, at 0.001 µM: 22300 pg/mL
Granzyme A secretion, CD8 T cells, at 0.01 µM: 22700 pg/mL
Granzyme A secretion, CD8 T cells, at 0.1 µM: 26000 pg/mL
Granzyme A secretion, CD8 T cells, at 1 µM: 30100 pg/mL
Granzyme A secretion, CD8 T cells, at 10 µM: 29300 pg/mL
Granzyme A secretion, CD8 T cells, at 100 µM: 24800 pg/mL
Granzyme B secretion, CD8 T cells, at 0 µM: 77700 pg/mL
Granzyme B secretion, CD8 T cells, at 0.0001 µM: 52600 pg/mL
Granzyme B secretion, CD8 T cells, at 0.001 µM: 45500 pg/mL
Granzyme B secretion, CD8 T cells, at 0.01 µM: 47300 pg/mL
Granzyme B secretion, CD8 T cells, at 0.1 µM: 62200 pg/mL
Granzyme B secretion, CD8 T cells, at 1 µM: 80500 pg/mL
Granzyme B secretion, CD8 T cells, at 10 µM: 83500 pg/mL
Granzyme B secretion, CD8 T cells, at 100 µM: 78100 pg/mL
IFNγ secretion, CD8 T cells, at 0 µM: 122000 pg/mL
IFNγ secretion, CD8 T cells, at 0.0001 µM: 95500 pg/mL
IFNγ secretion, CD8 T cells, at 0.001 µM: 108000 pg/mL
IFNγ secretion, CD8 T cells, at 0.01 µM: 102000 pg/mL
IFNγ secretion, CD8 T cells, at 0.1 µM: 122000 pg/mL
IFNγ secretion, CD8 T cells, at 1 µM: 142000 pg/mL
IFNγ secretion, CD8 T cells, at 10 µM: 143000 pg/mL
IFNγ secretion, CD8 T cells, at 100 µM: 120000 pg/mL
IL-1β secretion, LPS treated monocytes, at 0 µM: 6240 pg/mL
IL-1β secretion, LPS treated monocytes, at 0 µM (LPS only): 6880 pg/mL
IL-1β secretion, LPS treated monocytes, at 0.0001 µM: 5950 pg/mL
IL-1β secretion, LPS treated monocytes, at 0.001 µM: 6200 pg/mL
IL-1β secretion, LPS treated monocytes, at 0.01 µM: 4960 pg/mL
IL-1β secretion, LPS treated monocytes, at 0.1 µM: 5590 pg/mL
IL-1β secretion, LPS treated monocytes, at 1 µM: 5670 pg/mL
IL-1β secretion, LPS treated monocytes, at 10 µM: 6020 pg/mL
IL-1β secretion, LPS treated monocytes, at 100 µM: 6840 pg/mL
IL-9 secretion, CD8 T cells, at 0 µM: 1350 pg/mL
IL-9 secretion, CD8 T cells, at 0.0001 µM: 988 pg/mL
IL-9 secretion, CD8 T cells, at 0.001 µM: 1050 pg/mL
IL-9 secretion, CD8 T cells, at 0.01 µM: 1010 pg/mL
IL-9 secretion, CD8 T cells, at 0.1 µM: 1300 pg/mL
IL-9 secretion, CD8 T cells, at 1 µM: 1380 pg/mL
IL-9 secretion, CD8 T cells, at 10 µM: 1880 pg/mL
IL-9 secretion, CD8 T cells, at 100 µM: 1700 pg/mL
B1: hIL10Ra_VHH14 - hIL2Rg_VHH19, linker GGGSGGGS, tag his (bispecific antibody, not shown: small tags and cut ends)
chain: QVQLQESGGGSVQAGGSLRLSCGASGYTYSSYCMGWFRQVPGKEREGVAVIDSDGSTSYADSVKGRFTISKDNGKNTLYLQMNSLKPEDTAMYYCAADLGHYRPPCGVLYLGMDYWGKGTQVTVSSGGGSGGGSQVQLQESGGGSVQAGGSLRLSCTASGFTFDDREMNWYRQAPGNECELVSTISSDGSTYYADSVKGRFTISQDNAKNTVYLQMDSVKPEDTAVYYCAADFMIAIQAPGAGCWGQGTQVTVSS

Granzyme A secretion, CD8 T cells, at 0 µM: 25200 pg/mL
Granzyme A secretion, CD8 T cells, at 0.0001 µM: 20800 pg/mL
Granzyme A secretion, CD8 T cells, at 0.001 µM: 23000 pg/mL
Granzyme A secretion, CD8 T cells, at 0.01 µM: 25300 pg/mL
Granzyme A secretion, CD8 T cells, at 0.1 µM: 27100 pg/mL
Granzyme A secretion, CD8 T cells, at 1 µM: 28700 pg/mL
Granzyme A secretion, CD8 T cells, at 10 µM: 29400 pg/mL
Granzyme A secretion, CD8 T cells, at 100 µM: 25600 pg/mL
Granzyme B secretion, CD8 T cells, at 0 µM: 77700 pg/mL
Granzyme B secretion, CD8 T cells, at 0.0001 µM: 54500 pg/mL
Granzyme B secretion, CD8 T cells, at 0.001 µM: 50900 pg/mL
Granzyme B secretion, CD8 T cells, at 0.01 µM: 54100 pg/mL
Granzyme B secretion, CD8 T cells, at 0.1 µM: 62300 pg/mL
Granzyme B secretion, CD8 T cells, at 1 µM: 77600 pg/mL
Granzyme B secretion, CD8 T cells, at 10 µM: 90000 pg/mL
Granzyme B secretion, CD8 T cells, at 100 µM: 77900 pg/mL
IFNγ secretion, CD8 T cells, at 0 µM: 122000 pg/mL
IFNγ secretion, CD8 T cells, at 0.0001 µM: 94700 pg/mL
IFNγ secretion, CD8 T cells, at 0.001 µM: 110000 pg/mL
IFNγ secretion, CD8 T cells, at 0.01 µM: 117000 pg/mL
IFNγ secretion, CD8 T cells, at 0.1 µM: 122000 pg/mL
IFNγ secretion, CD8 T cells, at 1 µM: 144000 pg/mL
IFNγ secretion, CD8 T cells, at 10 µM: 149000 pg/mL
IFNγ secretion, CD8 T cells, at 100 µM: 127000 pg/mL
IL-1β secretion, LPS treated monocytes, at 0 µM: 6240 pg/mL
IL-1β secretion, LPS treated monocytes, at 0 µM (LPS only): 6880 pg/mL
IL-1β secretion, LPS treated monocytes, at 0.0001 µM: 6290 pg/mL
IL-1β secretion, LPS treated monocytes, at 0.001 µM: 5850 pg/mL
IL-1β secretion, LPS treated monocytes, at 0.01 µM: 6100 pg/mL
IL-1β secretion, LPS treated monocytes, at 0.1 µM: 4960 pg/mL
IL-1β secretion, LPS treated monocytes, at 1 µM: 5780 pg/mL
IL-1β secretion, LPS treated monocytes, at 10 µM: 6420 pg/mL
IL-1β secretion, LPS treated monocytes, at 100 µM: 7840 pg/mL
IL-9 secretion, CD8 T cells, at 0 µM: 1350 pg/mL
IL-9 secretion, CD8 T cells, at 0.0001 µM: 951 pg/mL
IL-9 secretion, CD8 T cells, at 0.001 µM: 1010 pg/mL
IL-9 secretion, CD8 T cells, at 0.01 µM: 1140 pg/mL
IL-9 secretion, CD8 T cells, at 0.1 µM: 1090 pg/mL
IL-9 secretion, CD8 T cells, at 1 µM: 1440 pg/mL
IL-9 secretion, CD8 T cells, at 10 µM: 1600 pg/mL
IL-9 secretion, CD8 T cells, at 100 µM: 1700 pg/mL
B2: hIL10Ra_VHH14 - hIL2Rg_VHH19, linker GGSGGS, tag his (bispecific antibody, not shown: small tags and cut ends)
chain: QVQLQESGGGSVQAGGSLRLSCGASGYTYSSYCMGWFRQVPGKEREGVAVIDSDGSTSYADSVKGRFTISKDNGKNTLYLQMNSLKPEDTAMYYCAADLGHYRPPCGVLYLGMDYWGKGTQVTVSSGGSGGSQVQLQESGGGSVQAGGSLRLSCTASGFTFDDREMNWYRQAPGNECELVSTISSDGSTYYADSVKGRFTISQDNAKNTVYLQMDSVKPEDTAVYYCAADFMIAIQAPGAGCWGQGTQVTVSS
